{"source": "paper doi:10.1101/2025.10.16.682859", "about": "(bioRxiv, 2025)", "proteins": {"B1": {"name": "human asparagine synthetase (ASNS) (enzyme)", "chain": "CGIWALFGSDDCLSVQCLSAMKIAHRGPDAFRFENVNGYTNCCFGFHRLAVVDPLFGMQPIRVKKYPYLWLCYNGEIYNHKKMQQHFEFEYQTKVDGEIILHLYDKGGIEQTICMLDGVFAFVLLDTANKKVFLGRDTYGVRPLFKAMTEDGFLAVCSEAKGLVTLKHSATPFLKVEPFLPGHYEVLDLKPNGKVASVEMVKYHHCRDVPLHALYDNVEKLFPGFEIETVKNNLRILFNNAVKKRLMTDRRIGCLLSGGLDSSLVAATLLKQLKEAQVQYPLQTFAIGMEDSPDLLAARKVADHIGSEHYEVLFNSEEGIQALDEVIFSLETYDITTVRASVGMYLISKYIRKNTDSVVIFSGEGSDELTQGYIYFHKAPSPEKAEEESERLLRELYLFDVLRADRTTAAHGLELRVPFLDHRFSSYYLSLPPEMRIPKNGIEKHLLRETFEDSNLIPKEILWRPKEAFSDGITSVKNSWFKILQEYVEHQVDDAMMANAAQKFPFNTPKTKEGYYYRQVFERHYPGRADWLSHYWMPKWINATDPSARTLTHYKSAVKA"}}, "target": "the molecule itself", "test": "cryo-EM structure"}
{"protein": "B1", "values": [{"measurement": "stoichiometry N", "result": 2}]}
